The target in data set [1] is T1, 2488prp DBD (Xpp1 candidate) (Hypocrea jecorina (Trichoderma reesei), UniProt G0RQ24 395-492).
T1 sequence: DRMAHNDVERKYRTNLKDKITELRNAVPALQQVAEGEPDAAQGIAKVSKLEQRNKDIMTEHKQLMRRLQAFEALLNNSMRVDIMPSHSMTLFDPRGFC
Kind of data set: EMSA; EMSA: 100 ng DBD or 60 ng IVT protein with 15 ng FAM probe, 15 min on ice, binding buffer per cited ref [41]; pull-down binding mix: 200 mM KCl, 200 ng/uL poly(dIdC), 200 ng/uL CKT067/CKT068, 8 mM spermidine, on ice. The settings on record: protein: recombinant; tags: GST removed by thrombin; chain copies: 2; label: 5'-FAM on strand 1; blunt. For orientation: A gel shift assay detects complexes by their altered migration in electrophoresis.

In a further data set the target is T2, 2488prp (Xpp1 candidate) (Hypocrea jecorina (Trichoderma reesei), UniProt G0RQ24 1-492).
T2 sequence: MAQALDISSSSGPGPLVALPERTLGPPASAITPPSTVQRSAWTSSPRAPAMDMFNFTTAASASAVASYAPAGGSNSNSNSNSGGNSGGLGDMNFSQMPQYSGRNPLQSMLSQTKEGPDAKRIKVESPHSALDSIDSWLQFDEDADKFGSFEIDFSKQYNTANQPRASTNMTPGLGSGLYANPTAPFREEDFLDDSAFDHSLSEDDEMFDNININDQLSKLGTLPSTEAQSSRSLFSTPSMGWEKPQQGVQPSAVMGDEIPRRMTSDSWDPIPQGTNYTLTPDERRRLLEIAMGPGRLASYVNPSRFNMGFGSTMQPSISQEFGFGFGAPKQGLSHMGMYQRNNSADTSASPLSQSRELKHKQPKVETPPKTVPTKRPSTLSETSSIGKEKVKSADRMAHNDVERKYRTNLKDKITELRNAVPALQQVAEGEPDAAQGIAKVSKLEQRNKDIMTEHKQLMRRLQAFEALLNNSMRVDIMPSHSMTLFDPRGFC
The data set is described as above. The conditions noted are these: protein: ivt; chain copies: 2; label: 5'-FAM on strand 1; blunt.

Where a chain is given by its changes, count along the chain named.

B1: Lpxyn2 (dsDNA)
DNA 1: TGATGAAAGGAGAACAACTTCTAGACTGGGTAAATTGGTCAATGGCCAGCCGCTC
DNA 2: GAGCGGCTGGCCATTGACCAATTTACCCAGTCTAGAAGTTGTTCTCCTTTCATCA
As for B1, the binding result (in data set [1]; in the data set with 2488prp (Xpp1 candidate)) was “binds” throughout.

B2: Lpxyn2 M (dsDNA)
DNA 1: B1 DNA 1 with T19G, T20G, C21A, T22G
DNA 2: B1 DNA 2 with A34C, G35T, A36C, A37C
On to B2, for which the binding result (in data set [1]; with 2488prp (Xpp1 candidate)) was “no binding” throughout.

Source of the values: article PMC3012607, “From an electrophoretic mobility shift assay to isolated transcription factors: a fast genomic-proteomic approach”.
